Reference: patent publication US20170174769A1 (Regeneron, published 2017)

Columns and labels:
[1] = target: T1, human KLB and human FGFR1c co-expressed on HEK293/hKLB/hFGFR1c/SRE-luc cells (human, UniProt Q86Z14 1-1044; P11362 22-822); test: FACS on stable HEK293 cells, 33 nM
T1 construct: two receptors co-expressed on one cell line; also called KLB/FGFR1c coreceptor; FGF21R
Method: (§1) For the FACS analysis, HEK293 parental, HEK293/hFGFR1c, HEK293/hFGFR1c/hKLB, and HEK293/mFGFR1c/mKLB cells were dissociated and plated onto 96-well v-bottom plates at 0.5×10⁶ cells/well in 2% FBS/PBS. […] Control mAb2 was tested at a concentration of 965 nM. After primary protein incubation cells were washed and incubated with 3.75 μg/mL fluorescently conjugated secondary antibodies for 30 minutes at 4° C. Cells were filtered and analyzed on Accuri™ 6 Flow Cytometer. Unstained and secondary antibody alone controls were also tested for all cell lines. The results were analyzed using FlowJo version 9.52 software and geometric mean (Geom. Mean) of fluorescence for viable cells were determined. Geom. mean of fluorescence for each antibody was then normalized to Geom. mean of unstained cells to obtain relative binding of antibody (binding ratios) per each cell type.

[2] = target: cell-surface human FGFR1c (amino acids 1-731 of NP_075594) with cell-surface human KLB on … (human, UniProt P11362 22-822); test: cell-based or functional assay
[3] = target: T2, full-length human FGFR1c on HEK293/hFGFR1c/SRE-luc cells (human, UniProt P11362 22-822); test: FACS on stable HEK293 cells, 965 nM
T2 construct: amino acids 1-733 of NP_075593
Method: as §1

[4] = target: T1, human KLB and human FGFR1c co-expressed …; test: FACS on stable HEK293 cells, 965 nM
Method: as §1

cell-surface human FGFR1c (amino acids 1-731 of NP_075594) with cell-surface human KLB on …, sequence (P11362 22-822, chain 1 of 2): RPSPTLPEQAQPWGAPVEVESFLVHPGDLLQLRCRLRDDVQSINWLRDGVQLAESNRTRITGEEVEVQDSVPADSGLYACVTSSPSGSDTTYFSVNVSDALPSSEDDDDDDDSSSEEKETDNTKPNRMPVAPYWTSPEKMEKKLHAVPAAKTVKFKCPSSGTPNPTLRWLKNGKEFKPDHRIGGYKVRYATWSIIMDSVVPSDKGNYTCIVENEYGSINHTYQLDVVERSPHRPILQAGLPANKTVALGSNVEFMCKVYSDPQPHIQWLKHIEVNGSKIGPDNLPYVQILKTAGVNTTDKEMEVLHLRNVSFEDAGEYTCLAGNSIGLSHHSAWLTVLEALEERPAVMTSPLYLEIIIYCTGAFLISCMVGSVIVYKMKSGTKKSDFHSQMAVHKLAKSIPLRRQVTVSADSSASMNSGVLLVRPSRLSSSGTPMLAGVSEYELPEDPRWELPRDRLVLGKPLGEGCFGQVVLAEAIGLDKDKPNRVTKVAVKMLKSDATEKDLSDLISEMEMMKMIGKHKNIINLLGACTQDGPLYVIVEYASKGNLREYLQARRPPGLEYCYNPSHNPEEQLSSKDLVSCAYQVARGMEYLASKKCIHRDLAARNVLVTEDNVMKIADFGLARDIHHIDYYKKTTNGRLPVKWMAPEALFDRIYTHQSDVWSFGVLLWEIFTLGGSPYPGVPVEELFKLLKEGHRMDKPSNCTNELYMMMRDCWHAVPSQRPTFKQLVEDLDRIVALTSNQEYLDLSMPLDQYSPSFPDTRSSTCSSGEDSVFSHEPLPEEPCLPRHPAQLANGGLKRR
cell-surface human FGFR1c (amino acids 1-731 of NP_075594) with cell-surface human KLB on …, sequence (chain, as listed by the source, chain 2 of 2): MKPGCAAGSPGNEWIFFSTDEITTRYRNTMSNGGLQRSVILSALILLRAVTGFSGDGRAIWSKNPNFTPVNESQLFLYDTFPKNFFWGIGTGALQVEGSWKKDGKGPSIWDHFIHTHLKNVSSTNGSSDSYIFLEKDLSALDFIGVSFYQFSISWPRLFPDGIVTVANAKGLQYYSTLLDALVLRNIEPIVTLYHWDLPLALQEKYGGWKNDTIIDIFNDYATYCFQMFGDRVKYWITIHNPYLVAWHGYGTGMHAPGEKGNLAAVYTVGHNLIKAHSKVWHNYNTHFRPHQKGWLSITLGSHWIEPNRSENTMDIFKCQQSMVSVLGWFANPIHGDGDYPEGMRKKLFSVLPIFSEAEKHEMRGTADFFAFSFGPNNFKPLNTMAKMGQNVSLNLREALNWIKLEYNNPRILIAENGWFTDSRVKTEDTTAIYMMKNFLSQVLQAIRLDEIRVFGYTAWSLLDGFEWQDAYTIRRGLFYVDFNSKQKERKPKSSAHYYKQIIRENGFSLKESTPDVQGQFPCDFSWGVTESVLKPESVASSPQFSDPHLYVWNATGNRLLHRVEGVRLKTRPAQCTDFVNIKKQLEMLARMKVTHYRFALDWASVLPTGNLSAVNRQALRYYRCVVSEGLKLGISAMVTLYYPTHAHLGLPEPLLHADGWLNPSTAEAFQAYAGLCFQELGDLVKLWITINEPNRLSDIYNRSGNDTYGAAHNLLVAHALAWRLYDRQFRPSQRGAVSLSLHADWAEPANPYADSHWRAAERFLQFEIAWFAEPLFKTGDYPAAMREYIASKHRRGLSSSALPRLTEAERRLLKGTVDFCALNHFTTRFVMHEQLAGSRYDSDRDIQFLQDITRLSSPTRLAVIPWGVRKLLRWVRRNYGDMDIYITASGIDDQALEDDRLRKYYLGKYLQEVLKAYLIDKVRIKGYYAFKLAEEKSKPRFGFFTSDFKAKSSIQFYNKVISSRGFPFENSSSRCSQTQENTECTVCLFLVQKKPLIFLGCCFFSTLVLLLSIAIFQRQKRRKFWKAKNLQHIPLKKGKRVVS
T1 sequence (Q86Z14 whole entry, chain 1 of 2): as the sequence (chain, as listed by the source, chain 2 of 2) above
T1 sequence (P11362 other isoform, or with tags, fused parts or gaps limits assumed, chain 2 of 2): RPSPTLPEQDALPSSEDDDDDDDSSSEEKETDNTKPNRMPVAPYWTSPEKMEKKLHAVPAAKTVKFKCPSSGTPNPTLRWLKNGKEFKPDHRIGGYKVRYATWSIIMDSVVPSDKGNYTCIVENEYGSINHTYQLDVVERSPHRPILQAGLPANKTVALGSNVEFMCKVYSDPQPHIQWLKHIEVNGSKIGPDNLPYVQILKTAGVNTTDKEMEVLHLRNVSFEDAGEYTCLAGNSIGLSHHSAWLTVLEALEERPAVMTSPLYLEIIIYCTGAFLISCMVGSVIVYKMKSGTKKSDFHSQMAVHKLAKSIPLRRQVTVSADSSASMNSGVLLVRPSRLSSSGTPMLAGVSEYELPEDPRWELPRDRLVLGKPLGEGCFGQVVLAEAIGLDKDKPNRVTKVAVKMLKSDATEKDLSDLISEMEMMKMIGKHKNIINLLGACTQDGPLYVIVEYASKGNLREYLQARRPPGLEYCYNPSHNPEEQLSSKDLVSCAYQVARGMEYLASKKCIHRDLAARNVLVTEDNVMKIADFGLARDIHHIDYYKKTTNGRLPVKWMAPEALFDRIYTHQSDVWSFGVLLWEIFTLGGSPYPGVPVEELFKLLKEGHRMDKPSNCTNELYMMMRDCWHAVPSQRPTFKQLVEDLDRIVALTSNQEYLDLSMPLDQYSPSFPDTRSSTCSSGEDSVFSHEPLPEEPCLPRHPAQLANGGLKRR
T2 sequence (P11362 other isoform, or with tags, fused parts or gaps limits assumed): as the sequence (P11362 other isoform, or with tags, fused parts or gaps limits assumed, chain 2 of 2) above

B1: H1H8900P (antibody, V domains shown)
VH: QVQLVESGGGVVQPGRSLRLSCVASGFTFSSYGMHWVRQAPGKGLEWVAVISFDGSNKYYADSVKGRFTISRDNSKNTLYLQMNSLRPADTAVYYCAKDRSNYYYFGMDVWGQGTTVTVSS
VL: DIVMTQTPLSLPVTPGEPASISCRSSQSLLDSDDGNTYLDWYLQKPGQSPQLLIYTLSYRASGVPDRFSGSGSGTDFTLKISRVEAEDVGVYYCMQRIEFPLTFGGGTKVEIK
notes: H1H Fc prefix (human Fc)
MFI Ratio to unstained cells [1]: 2 fold
% Activation [2]: 0.7%
EC50, SRE-luc activation [2]: 0.047 µM
MFI Ratio to unstained cells [3]: 5 fold
MFI Ratio to unstained cells [4]: 5 fold
